# Experimental data as given in patent publication US20240109955A1.
# B1: A46 + B8 (protein)
# VH 1: QVQLVESGGGVVQPGRSLRLSCAASGFTLSSYGMHWVRQAPGKGLEWVAVISYDGSNKYYVDSVKGRFTISRDNSKNTLYLQMNSLRAEDTAVYYCRWAYWELLPDYYYGMDVWGQGTTVTVSS
# VL 1: QTVVTQEPSFSVSPGGTVTLTCGLSSGSVSTAYFPSWYQQTPGQAPRTLIYGTNTRSSGVPDRFSGSILGNKAALTITGAQADDESDYYCVLYMGRGIVVFGGGTKLTVL
# VH 2: EVQLVESGGALIQPGGSLRLSCAASGIIVSANYMSWVRQAPGKGLEWVSVIYSGGSTFYADSVKGRFTISRDNSKNTLYLEMNSLRAEDTAVYYCARDAPILGVSDWGQGTLVTVSS
# VL 2: EIVMTQSPAILSVSPGERATLSCRASQSVAINLAWYQQKPGQAPRLLIYAASSRATGIPGRFSGSGSETNFTLTISSLQSGDFAVYYCQQYITWPPSYTFGQGTKLEIK
# B2: MX1027 (bispecific antibody)
# chain 1: EIVMTQSPAILSVSPGERATLSCRASQSVAINLAWYQQKPGQAPRLLIYAASSRATGIPGRFSGSGSETNFTLTISSLQSGDFAVYYCQQYITWPPSYTFGQGTKLEIKGGSSGQTVVTQEPSFSVSPGGTVTLTCGLSSGSVSTAYFPSWYQQTPGQAPRTLIYGTNTRSSGVPDRFSGSILGNKAALTITGAQADDESDYYCVLYMGRGIVVFGGGTKLTVLGGGGSGGSGSGGGGSASGSGQVQLVESGGGVVQPGRSLRLSCAASGFTLSSYGMHWVRQAPGKGLEWVAVISYDGSNKYYVDSVKGRFTISRDNSKNTLYLQMNSLRAEDTAVYYCRWAYWELLPDYYYGMDVWGQGTTVTVSSGGSSGEVQLVESGGALIQPGGSLRLSCAASGIIVSANYMSWVRQAPGKGLEWVSVIYSGGSTFYADSVKGRFTISRDNSKNTLYLEMNSLRAEDTAVYYCARDAPILGVSDWGQGTLVTVSSASGGSGDKTHTCPPCPAPELLGGPSVFLFPPKPKDTLMISRTPEVTCVVVDVSHEDPEVKFNWYVDGVEVHNAKTKPREEQYNSYVVSVLTVLHQDWLNGKEYKCKVSNKALPAPIEKTISKAKGQPREPQVYTLPPCRDELTKNQVSLWCLVKGFYPSDIAVEWESNGQPENNYKTTPPVLDSDGSFFKKLTVDKSRWQQGNVFSCSVLHEALHSHYTQKSLSLSPG
# chain 2: QTVVTQEPSFSVSPGGTVTLTCGLSSGSVSTAYFPSWYQQTPGQAPRTLIYGTNTRSSGVPDRFSGSILGNKAALTITGAQADDESDYYCVLYMGRGIVVFGGGTKLTVLGGSSGEIVMTQSPAILSVSPGERATLSCRASQSVAINLAWYQQKPGQAPRLLIYAASSRATGIPGRFSGSGSETNFTLTISSLQSGDFAVYYCQQYITWPPSYTFGQGTKLEIKGGGGSGGSGSGGGGSASGSGEVQLVESGGALIQPGGSLRLSCAASGIIVSANYMSWVRQAPGKGLEWVSVIYSGGSTFYADSVKGRFTISRDNSKNTLYLEMNSLRAEDTAVYYCARDAPILGVSDWGQGTLVTVSSGGSSGQVQLVESGGGVVQPGRSLRLSCAASGFTLSSYGMHWVRQAPGKGLEWVAVISYDGSNKYYVDSVKGRFTISRDNSKNTLYLQMNSLRAEDTAVYYCRWAYWELLPDYYYGMDVWGQGTTVTVSSASGGSGDKTHTCPPCPAPELLGGPSVFLFPPKPKDTLMISRTPEVTCVVVDVSHEDPEVKFNWYVDGVEVHNAKTKPREEQYNSYVVSVLTVLHQDWLNGKEYKCKVSNKALPAPIEKTISKAKGQPREPQVCTLPPSRDELTKNQVSLSCAVKGFYPSDIAVEWESNGQPENNYKTTPPVLDSDGSFFLVSKLTVDKSRWQQGNVFSCSVLHEALHSHYTQKSLSLSPG
# Tests used:
# Assay in all cases: cell-based or functional assay
# [1] = target: SARS-CoV-2 Omicron variant BQ.1 spike protein (SARS-CoV-2)
# [2] = target: SARS-CoV-2 Omicron variant BQ.1.1 spike protein (SARS-CoV-2)
# [3] = target: SARS-CoV-2 Omicron variant XBB spike protein (SARS-CoV-2)
Binder,"IC50, pseudovirus neutralization [1]","IC80, pseudovirus neutralization [1]","IC50, pseudovirus neutralization [2]","IC80, pseudovirus neutralization [2]","IC50, pseudovirus neutralization [3]","IC80, pseudovirus neutralization [3]"
B1,0.0186 µg/mL,0.0493 µg/mL,0.0145 µg/mL,0.0273 µg/mL,0.0186 µg/mL,0.0481 µg/mL
B2,0.0216 µg/mL,0.0649 µg/mL,0.0135 µg/mL,0.0232 µg/mL,0.0129 µg/mL,0.0207 µg/mL
